Data: publication PMC12135937, “Members of the DIP and Dpr adhesion protein families use cis inhibition to shape neural development in Drosophila” (PLOS Biology, 2025)
One block for each binder: values may come before it.

What was measured:
Details in all cases: both partners purified
DIP-β isoform C = molecular target: T1, DIP-β isoform C (Drosophila melanogaster); test: SPR; Biacore T100, CM4 chip; DIPs immobilised by amine coupling (700-900 RU), monomeric Dpr analytes in 3-fold dilution series (0.012 to 9, 27 or 81 µM); 25 °C; 10 mM Tris-HCl pH 7.2, 150 mM NaCl, 1 mM EDTA, 1 mg/mL BSA, 0.01% Tween-20; equilibrium responses fit to a 1:1 model
T1 construct: Monomeric protein was used for SPR; also called DIP-β-C
T1 sequence (main, as listed by the source): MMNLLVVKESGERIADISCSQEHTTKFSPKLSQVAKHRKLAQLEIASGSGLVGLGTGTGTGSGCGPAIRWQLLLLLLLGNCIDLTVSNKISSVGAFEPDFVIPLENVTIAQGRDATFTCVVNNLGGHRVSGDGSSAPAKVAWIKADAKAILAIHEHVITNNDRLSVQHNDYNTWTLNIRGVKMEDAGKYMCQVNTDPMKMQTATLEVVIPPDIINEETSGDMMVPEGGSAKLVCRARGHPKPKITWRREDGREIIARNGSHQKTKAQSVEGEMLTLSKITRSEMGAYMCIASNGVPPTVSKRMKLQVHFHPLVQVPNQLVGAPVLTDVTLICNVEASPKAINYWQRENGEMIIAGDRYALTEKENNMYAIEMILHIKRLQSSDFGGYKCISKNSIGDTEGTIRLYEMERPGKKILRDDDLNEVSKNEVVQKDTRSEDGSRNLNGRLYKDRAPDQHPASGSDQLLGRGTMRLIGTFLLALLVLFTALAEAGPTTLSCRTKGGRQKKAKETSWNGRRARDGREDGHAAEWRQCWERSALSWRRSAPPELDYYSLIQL

DIP-β isoform G = molecular target: T2, DIP-β isoform G (Drosophila melanogaster); test: as above
T2 construct: has an 11 amino acid deletion in the first Ig domain relative to DIP-β-C; Monomeric protein was used for SPR; also called DIP-β-G; not shown: His6, C-terminal, kept
T2 chain: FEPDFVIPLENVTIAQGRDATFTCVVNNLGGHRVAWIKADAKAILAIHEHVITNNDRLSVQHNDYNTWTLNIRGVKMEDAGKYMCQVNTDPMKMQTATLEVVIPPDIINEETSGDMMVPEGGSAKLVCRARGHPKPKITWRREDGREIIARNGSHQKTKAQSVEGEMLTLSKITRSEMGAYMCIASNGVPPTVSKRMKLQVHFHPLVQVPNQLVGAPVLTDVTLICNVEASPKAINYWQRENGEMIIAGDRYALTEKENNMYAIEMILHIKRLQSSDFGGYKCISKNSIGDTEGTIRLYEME

[1] = molecular target: T3, DIP-β-G recombinant protein for SPR (printed sequence) (Drosophila melanogaster); test: SPR; Biacore T100, CM4 chip; DIPs immobilised by amine coupling (700-900 RU), monomeric Dpr analytes in 3-fold dilution series; 25 °C; 10 mM Tris-HCl pH 7.2, 150 mM NaCl, 1 mM EDTA, 1 mg/mL BSA, 0.01% Tween-20; equilibrium responses fit to a 1:1 model
T3 construct: DIP-β isoform G, Drosophila melanogaster; Monomeric protein was used for SPR; immobilised by amine coupling; also called Isoform G of DIP-β; not shown: His6, C-terminal, kept
T3 chain: T2 chain

B1: Dpr21 (natural protein)
chain: DRGPYFDTSATKNVTSLVGITGHLNCRIKNLGNKTVSWIRHRDLHLLTVSESTYTSDQRFTSIYNKQTGDWSLQIKFPQLRDSGIYECQVSTTPPVGYTMVFSVVEPITSILGGPEIYIDLGSTVNLTCVIKHLPDPPISVQWNHNNQEINYDSPRGGVSVITEKGDITTSYLLIQRASIADSGQYTCLPSNANSKSVNVHILKGD
Kd (DIP-β isoform C): 1.55 µM
Kd (DIP-β isoform G): 5.05 µM

B4: Dpr10-A recombinant protein for SPR (printed sequence) (domain or fragment, Drosophila melanogaster)
chain: WNEPYFDLTMPRNITSLVGKSAYLGCRVKHLGNKTVAWIRHRDLHILTVGTYTYTTDQRFQTSYHRDIDEWTLQIKWAQQRDAGVYECQISTQPVRSYSVNLNIVDLIDAETSDIMQQYYNDDAFYIAENRVYQSSNDEFAGMFGPIQTVAVPTATILGGPDLYVDKGSTINLTCIIKFSPEPPTHIFWYHQDKVLSEETSGGRLKFKTIKSEETKSILLIYDADLLHSGKYSCYPSNTEIASIRVHVLQGE
notes: Dpr10 isoform A, Drosophila melanogaster; Monomeric protein was used for SPR; analyte; not shown: His6, C-terminal, kept
Kd [1]: 5.76 µM

More lines, in order of falling Kd (DIP-β isoform C), values ahead:

Kd (DIP-β isoform C): 25.3 µM
Kd (DIP-β isoform G): 159 µM
B3: Dpr15 (natural protein)
chain: TLKPPPTIDDYQTIISQAGTHAYLPCNVKQLVKKPISWLRMRDGHILTVDQTTFIADQRFQSVFSPNPERWSLQIKYVQLKDEGTYECQVSTEPKASAIVHLRIVEPKTELIGESTRHVKAGSQVKLRCIISQALEPPLFINWFYNQKQIYLHNRRGWRTEIERIDLPAEVPTTSTTTTTTTTTASTTTTTTSTTPATPSTTATGSTEGATSSETLNGLVTITRSYILDAISQNDVSELGAAAGVAVATETSTAQLLTEVEATSSTSGTSTGAGLLASTSAAYAAGAAAGITTAATGDSAATAATTSAWLTTMDAEAATTAATTTTTMLPSSSFIKQITTASLIIPAVVKLDSGNYTCSPSNSAPRTIVLHVLNGE

Kd (DIP-β isoform C): 22 µM
Kd (DIP-β isoform G): 15.2 µM
B2: Dpr6 (natural protein)
chain: WMEPYFDPSTPRNVTALMGKSAYLSCRVRNLANKTVSWIRHRDIHILTVGSYTYTSDQRFQATHHQDTEDWTLQIKWAQKRDAGMYECQISTQPVRSYFVRLNVVVPTATILGGPDLHVDKGSTINLTCTVKFSPEPPAYIFWYHHEEVINYDSSRGGVSVITEKGDVTTSFLLIQNADLADSGKYSCAPSNADVASVRVHVLNGE
